Changes are numbered by the printed parent chain.
B1: DGL285 (bispecific antibody)
chain: EVQLLESGGGLVQPGGSLRLSCAASGFTFSIYAMSWVRQAPGKGLEWVSAISGSGGSTYYADSVKGRFTISRDNSKNTLYLQMNSLRAEDTAVYYCARDFDYWGQGTLVTVTSSGGGGSGGGGSGGGGSQSVLTQPPSASGTPGQRVTISCSGSSSNIGSNYVYWYQQLPGTAPKLLIYGNINRPSGVPDRFSGSKSGTSASLAISGLRSEDEADYYCAAWDDSLNGRVFGGGTKLTVLDKGPSVFPLAPEPKSSEVQLLESGGGLVQPGGSLRLSCAASGFTFSNAWMNWVRQAPGKGLEWVSSISSSSSYIYYADSVKGRFTISRDNSKNTLYLQMNSLRAEDTAVYYCARAVAAGGMFWGLDQWGQGTLVTVTSSGGGGSGGGGSGGGGSQSVLTQPPSASGTPGQRVTISCSGSRSNIGSNSVHWYQQLPGTAPKLLIYGNSNRPSGVPDRFSGSKSGTSASLAISGLRSEDEADYYCQSYDSSLNDHVVFGGGTKLTVLDKTHTCPPCPAPEAAGAPSVFLFPPKPKDTLMISRTPEVTCVVVDVSHEDPEVKFNWYVDGVEVHNAKTKPREEQYNSTYRVVSVLTVLHQDWLNGKEYKCKVSNKALPAPIEKTISKAKGQPREPQVYTLPPSRDELTKNQVSLTCLVKGFYPSDIAVEWESNGQPENNYKTTPPVLDSDGSFFLYSKLTVDKSRWQQGNVFSCSVMHEALHNHYTQKSLSLSPG
B2: DGL282 (bispecific antibody, human IgG1, lambda)
heavy 1: EVQLLESGGGLVQPGGSLRLSCAASGFTFSIYAMSWVRQAPGKGLEWVSAISGSGGSTYYADSVKGRFTISRDNSKNTLYLQMNSLRAEDTAVYYCARDFDYWGQGTLVTVTSSASVAAPSVFIFPPSDEQLKSGTASVVCLLNNFYPREAKVQWKVDNALQSGNSQESVTEQDSKDSTYSLSSTLTLSKADYEKHKVYACEVTHQGLSSPVTKSFNRGECDKTHTCPPCPAPEAAGAPSVFLFPPKPKDTLMISRTPEVTCVVVDVSHEDPEVKFNWYVDGVEVHNAKTKPREEQYNSTYRVVSVLTVLHQDWLNGKEYKCKVSNKALPAPIEKTISKAKGQPREPQVCTLPPSRDELTKNQVSLSCAVKGFYPSDIAVEWESNGQPENNYKTTPPVLDSDGSFFLVSKLTVDKSRWQQGNVFSCSVMHEALHNHYTQKSLSLSPGWSHPQFEK
light 1: QSVLTQPPSASGTPGQRVTISCSGSSSNIGSNYVYWYQQLPGTAPKLLIYGNINRPSGVPDRFSGSKSGTSASLAISGLRSEDEADYYCAAWDDSLNGRVFGGGTKLTVLSSASTKGPSVFPLAPSSKSTSGGTAALGCLVKDYFPEPVTVSWNSGALTSGVHTFPAVLQSSGLYSLSSVVTVPSSSLGTQTYICNVNHKPSNTKVDKKVEPKSC
heavy 2: not shown
light 2: not shown
B3: DGL283 (bispecific antibody, human IgG1, lambda)
heavy 1: EVQLLESGGGLVQPGGSLRLSCAASGFTFSSYAMSWVRQAPGKGLEWVANINQDGSEKNYVDSMRGRFTISRDNSKNTLYLQMNSLRAEDTAVYYCAREFDYWGQGTLVTVTSSASVAAPSVFIFPPSDEQLKSGTASVVCLLNNFYPREAKVQWKVDNALQSGNSQESVTEQDSKDSTYSLSSTLTLSKADYEKHKVYACEVTHQGLSSPVTKSFNRGECDKTHTCPPCPAPEAAGAPSVFLFPPKPKDTLMISRTPEVTCVVVDVSHEDPEVKFNWYVDGVEVHNAKTKPREEQYNSTYRVVSVLTVLHQDWLNGKEYKCKVSNKALPAPIEKTISKAKGQPREPQVCTLPPSRDELTKNQVSLSCAVKGFYPSDIAVEWESNGQPENNYKTTPPVLDSDGSFFLVSKLTVDKSRWQQGNVFSCSVMHEALHNHYTQKSLSLSPGWSHPQFEK
light 1: B2 light 1 with T5A, I53N, N54K
heavy 2: not shown
light 2: not shown
B4: DGL275 (bispecific antibody)
chain 1: not shown
chain 2: EVQLLESGGGLVQPGGSLRLSCAASGFTFSDYYMTWIRQAPGKGLEWVSSISGGSTYYADSRKGRFTISRDNSENTLYLQMNSLRAEDTAVYYCARDFGVAGWFGQYGMDVWGQGTLVTVSSGGGGSGGGGSGGGGSQSVLTQPPSASGTPGQRVTISCTGSSSNIGAGYDVHWYQQLPGTAPKLLIYRSNQRPSGVPDRFSGSKSGTSASLAISGLRSEDEADYYCSSYAGNYNLVFGGGTKLTVLDKTHTCPPCPAPEAAGAPSVFLFPPKPKDTLMISRTPEVTCVVVDVSHEDPEVKFNWYVDGVEVHNAKTKPREEQYNSTYRVVSVLTVLHQDWLNGKEYKCKVSNKALPAPIEKTISKAKGQPREPQVCTLPPSRDELTKNQVSLSCAVKGFYPSDIAVEWESNGQPENNYKTTPPVLDSDGSFFLVSKLTVDKSRWQQGNVFSCSVMHEALHNHYTQKSLSLSPGWSHPQFEK
B5: DGL278 (bispecific antibody, human IgG1, lambda)
heavy: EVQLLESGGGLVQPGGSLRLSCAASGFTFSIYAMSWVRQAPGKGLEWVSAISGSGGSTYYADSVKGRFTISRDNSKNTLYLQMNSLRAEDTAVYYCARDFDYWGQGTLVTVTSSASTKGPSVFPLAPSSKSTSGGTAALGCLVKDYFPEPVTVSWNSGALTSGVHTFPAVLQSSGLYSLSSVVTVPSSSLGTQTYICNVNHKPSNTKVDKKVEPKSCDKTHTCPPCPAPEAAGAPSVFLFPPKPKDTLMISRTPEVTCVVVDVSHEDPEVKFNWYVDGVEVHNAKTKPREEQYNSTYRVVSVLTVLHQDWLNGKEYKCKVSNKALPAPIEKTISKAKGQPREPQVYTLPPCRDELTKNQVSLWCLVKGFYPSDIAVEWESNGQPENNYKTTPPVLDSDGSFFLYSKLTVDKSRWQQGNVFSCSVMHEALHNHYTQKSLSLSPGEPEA
light: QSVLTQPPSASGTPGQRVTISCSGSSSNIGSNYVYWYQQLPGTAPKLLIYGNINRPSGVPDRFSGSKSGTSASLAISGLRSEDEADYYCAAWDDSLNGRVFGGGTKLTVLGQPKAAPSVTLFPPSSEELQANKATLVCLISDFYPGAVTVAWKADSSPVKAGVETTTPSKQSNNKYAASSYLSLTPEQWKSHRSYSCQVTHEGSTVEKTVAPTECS
chain: EVQLLESGGGLVQPGGSLRLSCAASGFTFSIYAMSWVRQAPGKGLEWVSAISGSGGSTYYADSVKGRFTISRDNSKNTLYLQMNSLRAEDTAVYYCARDFDYWGQGTLVTVTSSGGGGSGGGGSGGGGSQSVLTQPPSASGTPGQRVTISCSGSSSNIGSNYVYWYQQLPGTAPKLLIYGNINRPSGVPDRFSGSKSGTSASLAISGLRSEDEADYYCAAWDDSLNGRVFGGGTKLTVLDKTHTCPPCPAPEAAGAPSVFLFPPKPKDTLMISRTPEVTCVVVDVSHEDPEVKFNWYVDGVEVHNAKTKPREEQYNSTYRVVSVLTVLHQDWLNGKEYKCKVSNKALPAPIEKTISKAKGQPREPQVCTLPPSRDELTKNQVSLSCAVKGFYPSDIAVEWESNGQPENNYKTTPPVLDSDGSFFLVSKLTVDKSRWQQGNVFSCSVMHEALHNHYTQKSLSLSPGKWSHPQFEK
B6: DGL277 (bispecific antibody)
chain 1: EVQLLESGGGLVQPGGSLRLSCAASGFTFSSYAMSWVRQAPGKGLEWVANINQDGSEKNYVDSMRGRFTISRDNSKNTLYLQMNSLRAEDTAVYYCAREFDYWGQGTLVTVTSSGGGGSGGGGSGGGGSQSVLAQPPSASGTPGQRVTISCSGSSSNIGSNYVYWYQQLPGTAPKLLIYGNNKRPSGVPDRFSGSKSGTSASLAISGLRSEDEADYYCAAWDDSLNGRVFGGGTKLTVLPLAPCPPCPAPEAAGAPSVFLFPPKPKDTLMISRTPEVTCVVVDVSHEDPEVKFNWYVDGVEVHNAKTKPREEQYNSTYRVVSVLTVLHQDWLNGKEYKCKVSNKALPAPIEKTISKAKGQPREPQVYTLPPCRDELTKNQVSLWCLVKGFYPSDIAVEWESNGQPENNYKTTPPVLDSDGSFFLYSKLTVDKSRWQQGNVFSCSVMHEALHNHYTQKSLSLSPGEPEA
chain 2: EVQLLESGGGLVQPGGSLRLSCAASGFTFSDYYMTWIRQAPGKGLEWVSSISGGSTYYADSRKGRFTISRDNSENTLYLQMNSLRAEDTAVYYCARDFGVAGWFGQYGMDVWGQGTLVTVSSGGGGSGGGGSGGGGSQSVLTQPPSASGTPGQRVTISCTGSSSNIGAGYDVHWYQQLPGTAPKLLIYRSNQRPSGVPDRFSGSKSGTSASLAISGLRSEDEADYYCSSYAGNYNLVFGGGTKLTVLPLAPCPPCPAPEAAGAPSVFLFPPKPKDTLMISRTPEVTCVVVDVSHEDPEVKFNWYVDGVEVHNAKTKPREEQYNSTYRVVSVLTVLHQDWLNGKEYKCKVSNKALPAPIEKTISKAKGQPREPQVCTLPPSRDELTKNQVSLSCAVKGFYPSDIAVEWESNGQPENNYKTTPPVLDSDGSFFLVSKLTVDKSRWQQGNVFSCSVMHEALHNHYTQKSLSLSPGWSHPQFEK
B7: DGL276 (bispecific antibody)
chain 1: EVQLLESGGGLVQPGGSLRLSCAASGFTFSSYAMSWVRQAPGKGLEWVANINQDGSEKNYVDSMRGRFTISRDNSKNTLYLQMNSLRAEDTAVYYCAREFDYWGQGTLVTVTSSGGGGSGGGGSGGGGSQSVLAQPPSASGTPGQRVTISCSGSSSNIGSNYVYWYQQLPGTAPKLLIYGNNKRPSGVPDRFSGSKSGTSASLAISGLRSEDEADYYCAAWDDSLNGRVFGGGTKLTVLCPPCPAPEAAGAPSVFLFPPKPKDTLMISRTPEVTCVVVDVSHEDPEVKFNWYVDGVEVHNAKTKPREEQYNSTYRVVSVLTVLHQDWLNGKEYKCKVSNKALPAPIEKTISKAKGQPREPQVYTLPPCRDELTKNQVSLWCLVKGFYPSDIAVEWESNGQPENNYKTTPPVLDSDGSFFLYSKLTVDKSRWQQGNVFSCSVMHEALHNHYTQKSLSLSPGEPEA
chain 2: EVQLLESGGGLVQPGGSLRLSCAASGFTFSDYYMTWIRQAPGKGLEWVSSISGGSTYYADSRKGRFTISRDNSENTLYLQMNSLRAEDTAVYYCARDFGVAGWFGQYGMDVWGQGTLVTVSSGGGGSGGGGSGGGGSQSVLTQPPSASGTPGQRVTISCTGSSSNIGAGYDVHWYQQLPGTAPKLLIYRSNQRPSGVPDRFSGSKSGTSASLAISGLRSEDEADYYCSSYAGNYNLVFGGGTKLTVLCPPCPAPEAAGAPSVFLFPPKPKDTLMISRTPEVTCVVVDVSHEDPEVKFNWYVDGVEVHNAKTKPREEQYNSTYRVVSVLTVLHQDWLNGKEYKCKVSNKALPAPIEKTISKAKGQPREPQVCTLPPSRDELTKNQVSLSCAVKGFYPSDIAVEWESNGQPENNYKTTPPVLDSDGSFFLVSKLTVDKSRWQQGNVFSCSVMHEALHNHYTQKSLSLSPGWSHPQFEK
B8: DGL281 (bispecific antibody, human IgG1, lambda)
heavy: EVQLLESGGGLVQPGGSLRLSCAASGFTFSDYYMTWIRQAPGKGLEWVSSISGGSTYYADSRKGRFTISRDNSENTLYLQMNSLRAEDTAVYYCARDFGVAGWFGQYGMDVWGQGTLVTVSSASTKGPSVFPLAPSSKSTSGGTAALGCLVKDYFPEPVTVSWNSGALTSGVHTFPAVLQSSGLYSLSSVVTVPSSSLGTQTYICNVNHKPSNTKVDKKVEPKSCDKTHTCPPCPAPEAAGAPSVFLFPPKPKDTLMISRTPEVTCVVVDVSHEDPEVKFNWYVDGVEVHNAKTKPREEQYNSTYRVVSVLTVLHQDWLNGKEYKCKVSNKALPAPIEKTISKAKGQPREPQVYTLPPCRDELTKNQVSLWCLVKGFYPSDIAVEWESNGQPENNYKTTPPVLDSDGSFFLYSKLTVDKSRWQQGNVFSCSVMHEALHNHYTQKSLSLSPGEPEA
light: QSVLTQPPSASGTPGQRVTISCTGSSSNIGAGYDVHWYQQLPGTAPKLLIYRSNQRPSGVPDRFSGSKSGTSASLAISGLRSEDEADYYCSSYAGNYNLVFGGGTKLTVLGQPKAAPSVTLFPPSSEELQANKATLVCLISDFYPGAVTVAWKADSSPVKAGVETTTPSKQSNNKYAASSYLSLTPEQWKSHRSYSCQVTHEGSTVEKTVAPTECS
chain: EVQLLESGGGLVQPGGSLRLSCAASGFTFSDYYMTWIRQAPGKGLEWVSSISGGSTYYADSRKGRFTISRDNSENTLYLQMNSLRAEDTAVYYCARDFGVAGWFGQYGMDVWGQGTLVTVSSGGGGSGGGGSGGGGSQSVLTQPPSASGTPGQRVTISCTGSSSNIGAGYDVHWYQQLPGTAPKLLIYRSNQRPSGVPDRFSGSKSGTSASLAISGLRSEDEADYYCSSYAGNYNLVFGGGTKLTVLDKTHTCPPCPAPEAAGAPSVFLFPPKPKDTLMISRTPEVTCVVVDVSHEDPEVKFNWYVDGVEVHNAKTKPREEQYNSTYRVVSVLTVLHQDWLNGKEYKCKVSNKALPAPIEKTISKAKGQPREPQVCTLPPSRDELTKNQVSLSCAVKGFYPSDIAVEWESNGQPENNYKTTPPVLDSDGSFFLVSKLTVDKSRWQQGNVFSCSVMHEALHNHYTQKSLSLSPGKWSHPQFEK

Molecular target: ALK-1/BMPR-2 receptor pair of the PathHunter U2Os dimerization cells (DiscoverX 93-0962C3) (UniProt P37023 22-503; Q13873 27-1038)
Test: cell-based or functional assay

Sequence of ALK-1/BMPR-2 receptor pair of the PathHunter U2Os dimerization cells (DiscoverX 93-0962C3) (P37023 22-503, chain 1 of 2): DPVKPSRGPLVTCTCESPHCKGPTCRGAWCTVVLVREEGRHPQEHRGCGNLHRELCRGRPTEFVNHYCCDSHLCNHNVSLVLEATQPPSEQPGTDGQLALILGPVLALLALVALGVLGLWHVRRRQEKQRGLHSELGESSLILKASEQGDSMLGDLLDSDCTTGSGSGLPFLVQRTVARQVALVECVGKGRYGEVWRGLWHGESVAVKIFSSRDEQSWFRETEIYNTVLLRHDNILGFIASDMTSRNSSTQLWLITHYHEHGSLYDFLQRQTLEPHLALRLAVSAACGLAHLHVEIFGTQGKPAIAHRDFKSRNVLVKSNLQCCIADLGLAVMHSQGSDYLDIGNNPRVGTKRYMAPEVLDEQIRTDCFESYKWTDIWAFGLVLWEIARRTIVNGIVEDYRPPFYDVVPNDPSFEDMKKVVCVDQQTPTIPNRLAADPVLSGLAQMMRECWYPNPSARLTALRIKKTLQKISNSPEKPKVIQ
Sequence of ALK-1/BMPR-2 receptor pair of the PathHunter U2Os dimerization cells (DiscoverX 93-0962C3) (Q13873 27-1038, chain 2 of 2): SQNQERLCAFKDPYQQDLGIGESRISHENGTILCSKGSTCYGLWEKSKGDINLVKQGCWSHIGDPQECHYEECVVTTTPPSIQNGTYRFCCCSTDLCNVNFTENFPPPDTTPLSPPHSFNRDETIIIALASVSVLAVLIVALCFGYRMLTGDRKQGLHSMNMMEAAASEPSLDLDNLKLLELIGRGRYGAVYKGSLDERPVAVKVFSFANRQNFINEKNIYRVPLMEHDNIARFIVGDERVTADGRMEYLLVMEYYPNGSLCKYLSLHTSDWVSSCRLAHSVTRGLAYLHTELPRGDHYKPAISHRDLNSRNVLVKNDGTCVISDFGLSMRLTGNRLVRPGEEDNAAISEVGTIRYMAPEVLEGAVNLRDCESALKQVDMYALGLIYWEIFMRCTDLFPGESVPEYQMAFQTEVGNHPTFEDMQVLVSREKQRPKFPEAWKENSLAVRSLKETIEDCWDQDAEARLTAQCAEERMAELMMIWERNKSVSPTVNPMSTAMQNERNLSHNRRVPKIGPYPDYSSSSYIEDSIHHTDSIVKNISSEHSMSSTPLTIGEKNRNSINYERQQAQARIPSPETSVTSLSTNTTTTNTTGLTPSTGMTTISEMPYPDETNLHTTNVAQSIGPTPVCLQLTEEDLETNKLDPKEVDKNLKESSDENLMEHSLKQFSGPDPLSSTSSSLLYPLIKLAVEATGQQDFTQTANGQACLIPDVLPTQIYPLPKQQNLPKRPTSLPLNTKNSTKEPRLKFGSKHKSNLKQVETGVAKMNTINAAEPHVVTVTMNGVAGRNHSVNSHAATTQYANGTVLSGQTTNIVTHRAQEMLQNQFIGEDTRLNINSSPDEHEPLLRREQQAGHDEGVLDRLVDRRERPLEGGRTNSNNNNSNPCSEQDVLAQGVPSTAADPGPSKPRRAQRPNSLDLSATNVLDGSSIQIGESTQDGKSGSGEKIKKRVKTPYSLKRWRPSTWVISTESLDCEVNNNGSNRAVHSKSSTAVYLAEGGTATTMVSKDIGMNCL

% Emax BMP9 [%]	EC50 [nM]	Emax (RLU)	Binder
56	0.08	1.47e+06	B1
36	170	954000	B2
33	28	879000	B3
48	0.9	1.28e+06	B4
26	14	684000	B5
51	1	1.35e+06	B6
43	1.2	1.14e+06	B7
42	330	1.11e+06	B8
